From the Immune Epitope Database (IEDB)

Columns and labels:
Assay in all cases: IEDB peptide-MHC binding, purified MHC/competitive/radioactivity; ≥ and ≤ were set here for values at or beyond the usual limits of such assays
Conditions in all cases: source organism: Bordetella pertussis
HLA-B*07:02 = target: HLA-B*07:02
HLA-B*35:01 = target: HLA-B*35:01
HLA-B*57:01 = target: HLA-B*57:01
HLA-B*53:01 = target: HLA-B*53:01
HLA-B*44:03 = target: HLA-B*44:03
HLA-A*02:01 = target: HLA-A*02:01

Q: For KPLADIAVV, which IC50 (HLA-B*07:02) is on record?
A: 5.56 µM

Q: How did the IC50 (HLA-B*35:01) turn out when LALQAGDAL was run?
A: 31.5 µM

Q: Which IC50 (HLA-B*57:01) does the source give for GAFDLKTTF here?
A: 50.9 µM

Q: For DATFQTYAL, which IC50 (HLA-B*35:01) is on record?
A: 17 µM

Q: And the IC50 (HLA-B*53:01)?
A: 65.4 µM

Q: Which IC50 (HLA-B*07:02) does the source give for NITNKRAAL here?
A: 22.9 µM

Q: With RSRVRALSW as the sequence, how does the IC50 (HLA-B*57:01) read?
A: 0.0584 µM

Q: With EVAGALELS as the sequence, how does the IC50 (HLA-B*35:01) read?
A: 69.9 µM

Q: How did the IC50 (HLA-B*44:03) turn out when FEGKPALEL was run?
A: ≥ 70.1 µM

Q: DHLTGRSCQ was tested. Which IC50 (HLA-B*57:01) did it give?
A: ≥ 70.4 µM

Q: How did the IC50 (HLA-B*35:01) turn out when PKPKPKPKA was run?
A: 69.9 µM

Q: How did the IC50 (HLA-B*57:01) turn out when VSSATKAKG was run?
A: ≥ 70.4 µM

Q: With ALANDGTIV as the sequence, how does the IC50 (HLA-A*02:01) read?
A: ≥ 78.1 µM

Q: MAAGHDATL was tested. Which IC50 (HLA-B*53:01) did it give?
A: 6.13 µM

Q: How did the IC50 (HLA-B*35:01) turn out when GKSLKKKNQ was run?
A: 69.9 µM
